Ka data for two molecules are collected here from PMC12152161 (2025).

The assay concerns the target T1, His10 − MBP − KIF1C(714–809) (UniProt O43896 714-809).
T1 chain: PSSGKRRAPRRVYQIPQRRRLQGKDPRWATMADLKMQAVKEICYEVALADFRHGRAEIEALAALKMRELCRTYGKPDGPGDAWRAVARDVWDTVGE
As to the kind of experiment: ITC.

B1: His10 − MBP − PTPN21(19–308) (domain or fragment)
chain: SKSCLVARIQLLNNEFVEFTLSVESTGQESLEAVAQRLELREVTYFSLWYYNKQNQRRWVDLEKPLKKQLDKYALEPTVYFGVVFYVPSVSQLQQEITRYQYYLQLKKDILEGSIPCTLEQAIQLAGLAVQADFGDFDQYESQDFLQKFALFPVGWLQDEKVLEEATQKVALLHQKYRGLTAPDAEMLYMQEVERMDGYGEESYPAKDSQGSDISIGACLEGIFVKHKNGRHPVVFRWHDIANMSHNKSFFALELANKEETIQFQTEDMETAKYIWRLCVARHKFYRLNQ
Molecule B1 showed a Ka of 194000 M⁻¹.

B2: His10 − MBP−Hook3(553–624) (domain or fragment)
chain: EKLHEANNELQKKRAIIEDLEPRFNNSSLKIEELQEALRKKEEEMKQMEERYKKYLEKAKSVIRTLDPKQNQ
In turn, B2 yielded a Ka of 631000 M⁻¹.
